Laboratory results from US7076372 (Takeda / Millennium, dated 2006).

Molecular target: the molecule itself
Assay: X-ray crystal structure, two MvaS molecules in the asymmetric unit

B1: MvaS from E. faecalis (HMG-CoA Synthase), full-length with non-cleavable carboxy-terminal six histidine tag, seleno-methionine labeled (enzyme)
chain: MTIGIDKISFFVPPYYIDMTALAEARNVDPGKFHIGIGQDQMAVNPISQDIVTFAANAAEAILTKEDKEAIDMVIVGTESSIDESKAAAVVLHRLMGIQPFARSFEIKEACYGATAGLQLAKNHVALHPDKKVLVVAADIAKYGLNSGGEPTQGAGAVAMLVASEPRILALKEDNVMLTQDIYDFWRPTGHPYPMVDGPLSNETYIQSFAQVWDEHKKRTGLDFADYDALAFHIPYTKMGKKALLAKISDQTEAEQERILARYEESIVYSRRVGNLYTGSLYLGLISLLENATTLTAGNQIGLFSYGSGAVAEFFTGELVAGYQNHLQKETHLALLDNRTELSIAEYEAMFAETLDTDIDQTLEDELKYSISAINNTVRSYRNKGHHHHHH
modifications: selenomethionine (MSE) in place of methionine, 100% incorporation by mass spectrometry
notes: Crystallised as a complex with the small molecule HMG-CoA; There are two MvaS molecules in the asymmetric unit, described as a dimer; Coordinates lack residues 1 and 384-391 (molecule A) and residues 1 and 388-391 (molecule B); also called MvaS Ef
  binding result: binds
